For experiment [1], the target named is T1, human DLL3 (UniProt Q9NYJ7 27-492).
T1 chain: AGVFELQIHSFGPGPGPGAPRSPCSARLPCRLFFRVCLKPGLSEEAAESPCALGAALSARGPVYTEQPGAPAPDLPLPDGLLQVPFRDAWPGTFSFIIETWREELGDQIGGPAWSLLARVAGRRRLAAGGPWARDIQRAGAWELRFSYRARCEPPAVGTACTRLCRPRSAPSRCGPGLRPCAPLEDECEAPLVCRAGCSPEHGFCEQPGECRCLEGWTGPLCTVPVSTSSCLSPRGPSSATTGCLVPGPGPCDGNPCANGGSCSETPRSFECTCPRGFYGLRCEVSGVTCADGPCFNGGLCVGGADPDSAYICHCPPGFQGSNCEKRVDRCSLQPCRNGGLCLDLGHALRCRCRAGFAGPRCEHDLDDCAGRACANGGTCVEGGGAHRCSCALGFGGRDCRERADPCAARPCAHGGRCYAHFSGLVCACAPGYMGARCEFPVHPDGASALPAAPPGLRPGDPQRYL
The experiment is described as follows: BLI (ForteBio).

The target in experiment [2] is T2, rat DLL3 over-expressed on 293 cells (rat, UniProt O88671 33-589).
T2 construct: whole, on cells
T2 sequence (looked up): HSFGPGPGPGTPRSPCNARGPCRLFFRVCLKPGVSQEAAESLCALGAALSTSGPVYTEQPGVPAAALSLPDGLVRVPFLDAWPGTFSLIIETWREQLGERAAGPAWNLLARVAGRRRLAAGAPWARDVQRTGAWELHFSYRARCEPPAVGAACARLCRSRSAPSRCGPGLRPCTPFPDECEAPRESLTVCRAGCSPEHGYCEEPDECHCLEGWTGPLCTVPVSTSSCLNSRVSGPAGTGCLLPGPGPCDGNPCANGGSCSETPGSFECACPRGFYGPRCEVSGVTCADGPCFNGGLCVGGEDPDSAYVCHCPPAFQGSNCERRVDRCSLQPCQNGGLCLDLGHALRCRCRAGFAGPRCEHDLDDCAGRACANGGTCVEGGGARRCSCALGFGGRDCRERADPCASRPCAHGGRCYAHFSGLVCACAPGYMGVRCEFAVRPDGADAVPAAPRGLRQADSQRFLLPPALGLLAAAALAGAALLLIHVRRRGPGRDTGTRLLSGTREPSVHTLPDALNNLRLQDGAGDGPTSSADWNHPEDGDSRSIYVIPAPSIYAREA
The experiment can be described thus: flow cytometry, 293 cells over-expressing rat DLL3. The method, then:
(§1) In addition to evaluating the exemplary modulators as set forth above, flow cytometry was performed in order to confirm that selected SC16 antibody modulators can immunospecifically associate with human DLL3 and to determine whether the same antibodies cross-react with cynomolgus, rat and/or murine DLL3. More particularly the exemplary murine antibodies were analyzed by flow cytometry using a FACSCanto II and 293 cells over-expressing murine, rat, cynomolgus or human DLL3. In some cases, exemplary murine modulators were analyzed by flow cytometry using a FACSCanto II and yeast cells displaying cynomolgus DLL3 using the methods described by Cochran et al. (J Immunol Methods. 287 (1-2):147-158 (2004).
A general note: In flow cytometry, cells or beads pass a laser one at a time.

For experiment [3], the target named is T3, human DLL3 over-expressed on 293 cells (human, UniProt Q9NYJ7 27-618).
T3 construct: identical extracellular and transmembrane regions; also called hDLL3; Delta-like ligand 3
T3 sequence: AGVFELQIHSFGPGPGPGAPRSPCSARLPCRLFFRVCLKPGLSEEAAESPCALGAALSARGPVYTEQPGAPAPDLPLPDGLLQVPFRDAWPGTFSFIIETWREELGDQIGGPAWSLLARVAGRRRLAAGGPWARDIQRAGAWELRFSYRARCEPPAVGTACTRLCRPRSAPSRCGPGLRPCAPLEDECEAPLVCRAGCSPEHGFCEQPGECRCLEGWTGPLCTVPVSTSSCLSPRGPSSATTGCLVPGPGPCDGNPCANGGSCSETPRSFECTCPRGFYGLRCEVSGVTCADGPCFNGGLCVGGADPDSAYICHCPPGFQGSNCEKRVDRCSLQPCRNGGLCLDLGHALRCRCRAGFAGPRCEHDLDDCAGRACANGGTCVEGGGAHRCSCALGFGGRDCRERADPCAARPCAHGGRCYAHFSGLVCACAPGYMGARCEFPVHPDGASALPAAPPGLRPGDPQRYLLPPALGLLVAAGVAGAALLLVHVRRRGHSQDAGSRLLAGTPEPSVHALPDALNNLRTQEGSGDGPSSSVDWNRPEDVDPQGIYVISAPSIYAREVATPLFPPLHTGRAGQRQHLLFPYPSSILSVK
The experiment is described as follows: flow cytometry, 293 cells over-expressing human DLL3. The method, then: as §1

The target in experiment [4] is T1, human DLL3. The experiment can be described thus: SPR (Biacore). For orientation: In SPR one partner is held on a chip, and binding of the other changes the refractive index at the surface.
The target in experiment [5] is T1, human DLL3. The experiment is described as follows: BLI (ForteBio). (In general: BLI is a label-free optical method that tracks binding on a fibre tip over time.)

B1: SC16.8 (antibody, V domains shown)
VH: QAQLQQSGAELVRPGTSVKVSCKASGYAFTNYLIEWVKQRPGQGLEWIGVINPGTGGTNYNENFKGKATLTADKSSSTAYMQLSSLTSDDSAVYFCARSPYDYHEGAMDYWGQGTSVTVSS
VL: EIQMTQSPSSMSASLGDRITITCQATQDIVKNLNWYQQKPGKPPSFLIYYAIELAEGVPSRFSGSGSGSDYSLTISNLESEDFADYYCLQFYEFPFTFGAGTKLELK
notes: murine mAb; V regions only
One may read the Kd as a measure of binding affinity in units of concentration. A lower Kd goes with tighter binding. In turn, B1 registered a Kd in experiment [1] of 0.5 nM. Moreover, the binding result in experiment [2] and in experiment [3] was “binds” throughout.

B2: SC16.15 (antibody, V domains shown)
VH: QVQLQQSGAELAKPGASVKMSCKASGYTFTRYWIHWIKQRPGQGLEWIGYINPTTVYTEFNQNFKDKATLTADKSSTTASMQLSSLTSEDSAVYYCARGGSNFFDYWGQGTTLTVSS
VL: DIQMTQSPASLAASVGETVAITCRASENIYYNLAWYQQKQGKSPQLLIYTANSLEDGVPSRFSGSGSGTQYSLKINSMQPEDSATYFCKQAYDVPPTFGGGTKLEIK
notes: murine mAb; V regions only
On to B2, for which, in experiment [4], binding was characterised by a dissociation constant (Kd) of 0.5 nM. In addition, the binding result in experiment [2] and in experiment [3] was “binds” in each case.

B3: SC16.4 (antibody, V domains shown)
VH: QIQLVQSGPELKKPGETVKISCKASGYTFTDYSMHWVKQAPGKGLKWMGWINTETGEPGYADDFKGRFAFSLETSASTAYLQINNLKNEDTATYFCARYDGYAMDYWGQGTSVTVSS
VL: DIQMTQTTSSLSASLGDRVTISCRASQDISNYLNWYQQKPDGTVKLLIYYTSRLHSGVPSRFSGSGSGTDYSLTISNLELEDIATYFCQQGDMLPWTFGGGTKLEIK
notes: murine mAb; V regions only
For the molecule B3, the Kd in experiment [1] worked out at 0.5 nM. Moreover, the binding result in experiment [2] and in experiment [3] was “binds” in each case.

B4: SC16.39 (antibody, V domains shown)
VH: EVKLEESGGGLVQFGGSMKLSCAASGFTFSDAWMDWVRQSPEKGLEWVAEIRNKANNHATYYPESVKGRFTISRDDSKSRVYLQMNNLRAEDTGIYYCTGYSSFAYWGQGTLVTVSA
VL: DIQMTQTTSSLSASLGDRVTISCRASQDVINYLNWYQQKPDGTVKLLIYYTSRLHSGVPSRFSGSGSRTDYSLTISNLEPEDIATYYCQQYSERPYTFGGGTKLEIK
In turn, B4 gave a Kd in experiment [5] of 1 nM.

B5: SC16.65 (antibody, V domains shown)
VH: QVTLKESGPGILQPSQTLSLTCSFSGFSLSTSGMGVGWIRQPSGKGLEWLALIWWDDVKRYNPALKSRLTISKDASSSQVFLKIASVDTADTATYYCARIASYDYDVVYAMDYWGQGTSVSVSS
VL: QIVLTQSPALMSASPGEKVTMTCSVTSSVSYMYWYQQKPRSSPKPWIYLTSNLASGVPARFSGSGSGTSYSLTISSVEAEDAATYYCQQWRNNPFTFGSGTKVEIK
notes: murine mAb; V regions only
B5 had a Kd in experiment [4] of 0.9 nM. In experiment [3], the binding result is recorded as “binds”.

B6: SC16.13 (antibody, V domains shown)
VH: QVTLKESGPGILQPSQTLSLTCSFSGFSLSTSGMGVGWIRQPSGKGLEWLAHIWWDDVKRYNPALKSRLTISKDTSSSQVFLKIASVDTADTATYYCARIVSFDNDVVSAMDYWGQGTSVTVSS
VL: QIVLTQSPALVSASPGEKVTMTCSASSSVSYMYWYQQKPRSSPKPWIYLTSNLASGVPARFSGSGSGTSYSLTISSMEAEDAATYYCQQWRSNPFTFGSGTKLEIK
On to B6, for which the Kd in experiment [4] was 2 nM.

B7: SC16.56 (antibody, V domains shown)
VH: QIQLVQSGPELKKPGETVKISCKASGYTFTNYGMNWVKQAPGKGLKWMAWINTYTGEPTYADDFKGRFAFSLETSASTASLQIINLKNEDTATYFCARIGDSSPSDYWGQGTTLTVSS
VL: SIVMTQTPKFLLVSAGDRVTITCKASQSVSNDVVWYQQKPGQSPKLLIYYASNRYTGVPDRFAGSGYGTDFSFTISTVQAEDLAVYFCQQDYTSPWTFGGGTKLEIR
notes: murine mAb; V regions only
As for B7, the Kd in experiment [4] was 1 nM. Besides, the binding result in experiment [2] and in experiment [3] was “binds” each time.

B8: SC16.34 (antibody, V domains shown)
VH: QIQLVQSGPELKRPGETVKISCKASGYTFTNYGMNWVKQAPGKGLKWMGWINTYTGDPTYADDFKGRFAFSLETSASTAYLQINNLKNEDTATYFCARIGGNSPSDYWGQGTSLTVSS
VL: SIVMTQTPKFLLVSAGDRVTITCKASQSVSNDVAWYQQKPGQSPKLLIYYASNRYSGVPDRFTGSGYGTDFTFTISTVQAEDLAVYFCQQDYSSPWTFGGGTKLEIK
notes: murine mAb; V regions only
Consider B8, for which, in experiment [4], binding was put at a Kd of 0.2 nM. Further, the binding result in experiment [2] and in experiment [3] was “binds” each time.

B9: SC16.25 (antibody, V domains shown)
VH: QVTLKESGPGILQPSQTLSLTCSFSGFSLSTSGMGVGWIRQPSGEGLEWLTDIWWDDNKYYNPSLKSRLTISKDTSSNQVFLNITSVDTADTATYYCARRVNYYYDPYYAMDYWGQGTSVTVSS
VL: QIVLTQSPAIMSASPGEKVTMTCSASSSVSYMHWYQQKSGTSPKRWIYDSSKLASGVPARFSGSGSGTSYSLTISSMEAEDAATYYCQQWSSNPLTFGAGTKLELK
notes: murine mAb; V regions only
The molecule B9 returned a Kd in experiment [4] of 0.2 nM. Besides, the binding result in experiment [3] is “binds”.

B10: SC16.7 (antibody, V domains shown)
VH: EVQLQQSGPELVKPGASVKISCKASGYSFTGYKMHWVKQSHVKSLEWIGRINPYNGATSYNQNFKDKATLTVDKSSSTAYMDLHSLTSEDSAVYFCARGDYRYDWFAYWGQGTLVTVSA
VL: NIMMTQSPSSLAVSAGEKVTMSCKSSQSVLYSSNQKNYLAWYQQKPGQSPKLLIYWASTRESGVPDRFTGSGSGTDFTLTISTVQVEDLAVYYCHQYLSSWTFGGGTKLEIK
notes: murine mAb; V regions only
For the molecule B10, the binding result in experiment [3] is “binds”.

B11: SC16.67 (antibody, V domains shown)
VH: EVQLVETGGGLVQPKGSLKLSCAVSAFTFTTYAMNWVRQAPGKGLEWVARIRNKSNNYATYYADSVKDRFTISRDDSQSMLYLQMNNLKIEDTAMYYCVFYYDYVYWGQGTLVTVSA
VL: QAVVTQESALTTSPGETVTLTCRSSTGAVTTSNYANWIQEKPDHLFTGLIGGTNNRAPGVPARFSGSLIGDKAALTITGAQTEDEAIYFCGLWYSNHLVFGGGTKLTVL
The molecule B11 returned a Kd in experiment [1] of 0.5 nM. In other words, the sub-nanomolar range.

B12: SC16.10 (antibody, V domains shown)
VH: QVTLKESGPGILQSSQTLSLTCSFSGFSLSTSGMGVGWIRQPSGKGLEWLAHIWWDDVKRYNPVLKSRLTISKDTSSSQVFLKIASVDTADTATYYCARLVDDLYYFDYWGQGTTLTVSS
VL: QIVLTQSPAIMSASLGERVTMTCTASSSVSSSYLHWYQQKPGSSPKLWIYSTSNLASGVPTRFSGSGSGTSYSLTISSMEAEDAATYYCHQYHRSPFTFGSGTKLEIK
notes: murine mAb; V regions only
As to B12, the affinity in experiment [1], expressed as Kd, was 4 nM. In addition, the binding result in experiment [3] was “binds”.

These data come from US20160015828A1 (AbbVie / Abbott, published 2016).
